# Assay results published in the nanobody polyreactivity screen of Harvey et al. (2022).
# Experiment: yeast display, Sf9 membrane polyspecificity reagent, FACS + sequencing; frameworks hold sequencing errors
# Method in brief: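 Nanobodies came from a synthetic yeast display library in Saccharomyces cerevisiae BJ5465, induced with galactose for 36–48 hours and stained for 1 hour at 4 °C with 10% biotinylated, detergent-solubilized Sf9 membrane reagent. Cells were enriched on streptavidin microbeads and then FACS-sorted, with low and high (top ~1%) gates set on anti-HA fluorescence for expression and streptavidin fluorescence for reagent binding. Each polyreactivity label reflects the gate a clone came from. Genes were amplified by colony PCR, sequenced by MiSeq 2 × 250 and filtered by CDR length.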
row,Sequence,polyreactivity (PSR sort gate)
1,QVQLVESGGGLVQAGGSLRLSCAASGRIFPAYAMGWYRQAPGKERELVAAISWTGTSTYYADSVKGRFTISRDNAKNTVYLQMNSLKPEDTAVYYCAARSYRLRSAYNYWGQGTQVTVSS,high polyreactivity
2,QVQLVESGGGLVQAGGSLRLSCAASGFTFKYYVMGWYRQAPGKERELVASISKRGGSTRYADSVKGRFTISLDNAKNTVYLQMNSLKPEDTAVYYCAAEYWYYWEYEYWGQGTQVTVSS,high polyreactivity
3,QVQLVESGGGLVQAGASLRLSCAASGSTFYYNAMGWYRQAPGKERELVAAISKSSSRTYYADSVKGRFTISRDNAKNTVFLQMNSLKPEDTAGYYCAADAVYYHFDYWGQGTQVTVSS,high polyreactivity
4,QVQLVESGGGLVQAGGSLRLSCAASGNLFYGYAMGWYRQAPGKERELVAAISGSSTYYADSVKGRFTISRDNAKYTVYLQMNSLKPEDTAVYYCAVPQYLYLQAGHGFRYYYWGQGTQVTVSS,high polyreactivity
5,QVQLVESGGGLVQAGGSLRLSCAASGSTFFINAMGWYRQEHGTEREFVASISYSGGSTYYADSVKGRFTISRDNAKNTVYLQMNSLKPEDTAVYYCNADVRVFLHYSKYNYWGQGTQVTVSS,low polyreactivity
6,QVQLVESGGGLVQAGGSLRLSCAASGRILGGNTMGWYRQAPGKERELVAGISYSGGRTYYADSVKGRFTISRDNAKHTVYLQMNSLKPEDTAVYYCAAEYDWYSYQLDYWGQGTQVTVSS,high polyreactivity
7,QVQLVESGGGLVQAGGSLRLSCAASGSIAHYAMGWYRQDPGKERELVAAINWSGGSTNYADSVKGRFTISRDNAKNTVYLQMNSMKPEDTAVYYCSAQKRGPGYPYYYWGQGTQVTVSS,high polyreactivity
8,QVQLVESGGGLVQAGGSLRLSCAASGSIIKPYDMGWYRQAPGKERELVAAIRSSGGRTNYADSVKGRFTISRDNAKNTVYLQMNSLKPEDTAVYYCAAGYVSYWYYRYDYWGQGTQVTVSS,high polyreactivity
9,QVQLVESGGGLVQAGGSLRLSCAASGRIYTRYMGWYRQAPGKEREMVATINWSGGSTYYADSVKGRFTISRDNAKNTVYLQMNSLKPEDTAVYYCNARNVDFYYVQYNGAKIFDYWGQGTQVTVSS,low polyreactivity
10,QVQLVESGGGLVQAGGSLRLSCAASGSIFSFYAMGWYRQAPGKERELVATISSGDNTNYADSVKGRFTISRDNAKNTVYLQMNSLKPEDTAVYYCAADAWGVDREYDYWGQGTQVTVSS,low polyreactivity
11,QVQLVESGGGLVQAGGSLRLSCAASGSIFRKKAMGWYRQAPGKERELVAAITGTGRTTYADSVKGRFTISRDNAKNTVYLQMNSLKPEDTAVYYCAAEYYYRYSYTNEGDYWGQGTQVTVSS,low polyreactivity
12,QVQLVESGGGLVQAGGSLRLSCAASGLIFNLYAIGWNRQAPGKEREFVATITGIGGSTYYADSVKGRFTISRDNAMNTVYFQMNSLKPEDTAVYYCAADAWFLPYNYWGQGTQVTVSS,low polyreactivity
13,QVKLVESGGGLVQAGGRLRLSCAASGFTFPSNAMVWYRHAPGKEREMVAAISSTDSTNYADSVMGRFTISRDNAKNTVYLQMNSLNPEDTAVYYCAKRYPRYRYNTRGNDYWGQGTQVTVSS,low polyreactivity
14,QVQLVESGGGLVQAGGSLRLSCAASGFIFLPYAKGWYRQAPGKERELVAAITRGGRTYYADSVKGRFTISRDNAKNTVYLQMNSLKPEDTAVYYCAATTYLVWGYNYWGQGTQVTVSS,low polyreactivity
15,QVQLVESGGGLVQAGGSLRLSCAASGYTFNRNAMGWYIQAPGKERELVASITRRGGSTYYADSVKGRFTISRDNAKNTVYLQMNSLKPEDTAVYYCAVESIRTGDYWGQGTQVTVSS,high polyreactivity
16,QVQLVESGGGLVQAGGSLRLSCAASGFIFKIYAMGWYRQAPGKERELVAAISSGDNTNYADSVKGRFTISRDNAKNTVYLQMNSLKPEDTAVYYCAARAYRWRSFSTMYYWGQGTQVTVSS,high polyreactivity
17,QDQLVDSGGGLVQAGGSLRLSCAASGRTIISYAMGRYRPAPGKERELVATITRDGRTNYADSVKGRFTISRDNAKNTVYLQMNSLNPEDTAVYYCNADSRYRYDYWGQGSQVTVSS,low polyreactivity
18,QVQLVESGGGLVQAGGSLRLSCAASGFTFGRYAMGWYRQAPGKERELVATISRSGGRTYYADSVKGRFTISRDIAKKTVYLQMNSLKPEDTAVYYCAADTRNYPRYDYWGQGTQVTVSS,high polyreactivity
19,QVQLVESGGGLVQAGGSLRLSCAASGIIIRGYAMGLYRQAPGKERELVAGITSGGRTYYADSVKGRFTISRDNAKNTVYLQMNSLKPEDTAVYYCNADAYGDDWKIYDYWGQVTQVTVSS,low polyreactivity
20,QVQLVESGGGLVQAGGSLRLSCASSGFIFRGYAMGWYRQAPGKERELVAVISRSGTSTYYADSVKGRFTISRDNAKITVYLQMNSLKPEDTAVYYCAKEVWPRYIRQAYLSGYESWGQGTQVTVSS,high polyreactivity
21,QVQLVESGGGLVQAGGSLRLSCAASGFTFSRYAMGWYRQAPGKERELVAAITASGGTTYYADSVKGRFTISRDNAKNTVYLQMNSLKAEDTAVYYCNALYYYLYGYDYWGQGTQVTVSS,high polyreactivity
22,QVQLVESGGGLVQAGGSLRLSCAASGRIFNTYAMGWYRQAPGKERELVARITWSAGRTYYADSVKGRFTISRDNAKNTVYLQMNSLKPEDTAVYYCAAEGFYRSSPVRTYIGYDYWGQGTQVTVSS,high polyreactivity

row,Sequence,polyreactivity (PSR sort gate)
1,QEQLVESGGGLVQAGGSLRLSCAATGLTITDYAMGWYRQAPGKERELDAGINTRGTSRYSADSVKGRFTISRDNAKNTVYFQMFSLNPEDTAVYYCDSEYFGYWYGIQYDYWGQGTQVTVSS,high polyreactivity
2,QVQLVESGGGLVQAGGSLRLSCAASGSTFSLYAMGWYRQAPGKERELVASITWGGGSTYADSVKGRFTISRDNAKNTVYLQMNSLKPEDTAVYYCARKYRYRVLYDFAYDHWGQGTQVTVSS,low polyreactivity
3,QVQLLESGGGLVQAGGSLRLSCAASGFNFYYYAMGWYRQAPGKERELVAAISKSGGSTHYADSVKGRFTISRDNAKHTVYLQMNSLKPEDTAVYYCAARYILSKYGSGVRYNYWGQGTQVTVSS,high polyreactivity
4,QVHLVESGGGLVQAGRSLRLSCAASGSTFSYNAMGWSRQAPGKERELVAAISNGGSTNYADSVKGRFTISRDNAKYTVFLQMNSLKPEDTAVYYCAAHTYSELSWLVVYPYDYWGQGTQVTVSS,low polyreactivity
5,QGQLVETGGGLVQAGGSLRLSCDASGSIFYSNRGSYRQAPGKESEFVSAISGSGVRTYYADSLKGRFTISRDNAKNTVYLQMNSLKPEDNEVYYCNAGRRQDYRYNYWGQGTQVTVSS,high polyreactivity
6,QVQLVESGGGLDQAGGSLRLSCAASGSIFVRNAMGWYRQAPGKERELVASISRRGGSTYYADSVKGRFTISRDNAKNTVYLQMNSLKPEDTAVYYCAAVVRRAPEFDYWGQGTQVTVSS,high polyreactivity
7,QVQLVESGGGLVQAGGSLRLICAASGFTFSGNTMGWYRQAPGKERELVATISRTGGITYYADSVKGRFTISRDNAKNTVYLQMNSLKPEDTAVYYCNRRYYYFVYPDDYWGQGTQVTVSS,high polyreactivity
8,QVQLVESGGGLVQAGGSLRLSCAASGRIFDVNAMGWYRQAPGKERELVAAITYSDGSTYYADSVTGRFTISRDNAKNTVYLQMNSLKPEDTAVDYCAATQEPVTPQPYGYWGQGTQVTVSS,low polyreactivity
9,QVQLVESGGGLVQAGGSLRLSCAASGRIFYGNTMGWYRQAPGKERELVAAITWRGGSTYYADSVKGRFTISRDNAKITVYLQMNSLKPEDTAVYYCAAVSYRGRGYWGQGTQVTVSS,high polyreactivity
10,QVQLVESGGGLVQAGGSLRLSCAASGFTFRYYAMGWYRQAPGKERELVAAISKSGGSTYYADSVKGRFTISRDNAKNTVYLQMNSLKPEDTGVFYCAADYAHIGYDYDYWGQGTQVTVSS,high polyreactivity
11,QVQLVESGGGLVQAGGSLRLSCAASGSILYVYAMGWYRQAPGKERELVATITGRVVSKNYADSVKGRLTLSRDNAKNSVYLQMNSLKPEDTAVYYCAARTRRRRGEYDYWGQGTQVTVSS,high polyreactivity
12,KVQVVESGGCLVQAGGSLRLSCAASGFSFGGYAMGCYRQAPGKDRELVAAINYRGGSTNYADSVKGRFTISRDNAKNTVYFQMNSLKPEDTAVYYCAASYFYWRANRGPRYYWGQGTQVTVSS,high polyreactivity
13,QVQLVESGGGLVQAGGSLRLSCAASGTTFAVYTMGWYRQAPGKERELSTSYADSVKGRFTISRDNAKNTVYLQMNILKQEDTAVYYCNRDFYEFDSNSYRFDYWGQGTQVTVSS,low polyreactivity
14,QVQLVESGGGLVQAGGSLRLSCAASGFILSRYTMGWYRQAPGKERELVATISSGGRTYYADSVKGRFTISRDNAKNTVYLQMNSLKPEDTAVYYCAAAYTYWRIPGNRYLYDYWGQGTQVTVSS,high polyreactivity
15,QVQLVESGGGLVQAGGSLRLSCAASGRIFSEYAMGWYRQAPGKERELVAAISKSGGRTYYADSVKGRFTISRDNAKNTVYLKMNSLKPEDTAVYYCNARAVYPAGYAYDYWGQGTQVTVSS,high polyreactivity
16,QVQLVESGGGLVQAGRSLRLSCAASGRIFRGYAMGWYRPAPGIERELVAAISWSGGSTNYADSVKGRFTISRDNAKNSVYLQMNSLKPEDTEVYYCAARAYRVANAGYTYWGQGTQLTVSS,high polyreactivity
17,QVQLVESGGGLVQAGGSLRLSCAASGRIFFSYAMGWYRQAPGKERELVAAITSGGSTNYADSVKGRFTISRDNAKNTVYLQMNSLKPEDTAVYYCNKARSSGYNFGYWGQGTQVTVSS,low polyreactivity
18,QVQLLESGGGLVQAGGSLRLSCAASGRTFEYYAMGWYRQAPGKERELDAAITSGGITYYADSVKGRFTISRDNAKITVYLQMNSLKPEDSAVYYCAAKGWYFGYGRYGYWGQGTQVTVSS,high polyreactivity
19,QVQLVESAGGLVQAGGSLRLSCAASGSTFGKYAMGWDRHAPGKERELVAAISWSGGSTYYADSVKGRFTISRDNAKNTVYLQMNSLKPEDTAVYYCTVYRYDGDYWGQGTQVTVSS,high polyreactivity
20,QVQLLESGGGLVQAGGSLRLSCAASGLTYYYAMGWYRQAPGKERELVAAISYSGGRTNYADSVKGRFTISRDNAKNTVYLQMNSLKPEDTAVYFCAAVGPRTDYSGYRYYYWVQGTQVTVSS,high polyreactivity
21,QVQLVESGGGLVQAGVSLRLSCAASGRTFVTYAMGWSREAPGKEKEFVAAISRTGGSTDYADSVKGRFTISRDNAKNTVYLQMNSLKPEETAVYYCATTVIVSPSGYLKSYYWGQGTQVTVSS,high polyreactivity
